Measurements published in PMC10470788.

Assays:
[1] = molecular target: BxpB (recombinant, 167 residues, His6 tag removed with Factor Xa) (Bacillus anthracis (Sterne strain)) (UniProt S5W424); test: SEC-MALS
[2] = molecular target: BxpB (recombinant, 167 residues, His6 tag removed with Factor Xa) (Bacillus anthracis (Sterne strain)) (UniProt S5W424); test: crystal structure

“BxpB (recombinant, 167 residues, His6 tag removed with Factor Xa) (from UniProt S5W424 1-167) (natural protein)” gave a stoichiometry N [1] of 3 and a stoichiometry N [2] of 3.
